IntAct's records for PubMed 20600852

B1: Inhibitor of nuclear factor kappa-B kinase subunit beta (Homo sapiens), O14920 (parent)
chain: MSWSPSLTTQTCGAWEMKERLGTGGFGNVIRWHNQETGEQIAIKQCRQELSPRNRERWCLEIQIMRRLTHPNVVAARDVPEGMQNLAPNDLPLLAMEYCQGGDLRKYLNQFENCCGLREGAILTLLSDIASALRYLHENRIIHRDLKPENIVLQQGEQRLIHKIIDLGYAKELDQGSLCTSFVGTLQYLAPELLEQQKYTVTVDYWSFGTLAFECITGFRPFLPNWQPVQWHSKVRQKSEVDIVVSEDLNGTVKFSSSLPYPNNLNSVLAERLEKWLQLMLMWHPRQRGTDPTYGPNGCFKALDDILNLKLVHILNMVTGTIHTYPVTEDESLQSLKARIQQDTGIPEEDQELLQEAGLALIPDKPATQCISDGKLNEGHTLDMDLVFLFDNSKITYETQISPRPQPESVSCILQEPKRNLAFFQLRKVWGQVWHSIQTLKEDCNRLQQGQRAAMMNLLRNNSCLSKMKNSMASMSQQLKAKLDFFKTSIQIDLEKYSEQTEFGITSDKLLLAWREMEQAVELCGRENEVKLLVERMMALQTDIVDLQRSPMGRKQGGTLDDLEEQARELYRRLREKPRDQRTEGDSQEMVRLLLQAIQSFEKKVRVIYTQLSKTVVCKQKALELLPKVEEVVSLMNEDEKTVVRLQEKRQKELWNLLKIACSKVRGPVSGSPDSMNASRLSQPGQLMSQPSTASNSLPEPAKKSEELVAEAHNLCTLLENAIQDTVREQDQSFTALDWSWLQTEEEEHSCLEQAS

Variants of: B1
Details: with keap1_human KEAP1, Q14145
Sequence of keap1_human KEAP1, Q14145 (Q14145 whole entry): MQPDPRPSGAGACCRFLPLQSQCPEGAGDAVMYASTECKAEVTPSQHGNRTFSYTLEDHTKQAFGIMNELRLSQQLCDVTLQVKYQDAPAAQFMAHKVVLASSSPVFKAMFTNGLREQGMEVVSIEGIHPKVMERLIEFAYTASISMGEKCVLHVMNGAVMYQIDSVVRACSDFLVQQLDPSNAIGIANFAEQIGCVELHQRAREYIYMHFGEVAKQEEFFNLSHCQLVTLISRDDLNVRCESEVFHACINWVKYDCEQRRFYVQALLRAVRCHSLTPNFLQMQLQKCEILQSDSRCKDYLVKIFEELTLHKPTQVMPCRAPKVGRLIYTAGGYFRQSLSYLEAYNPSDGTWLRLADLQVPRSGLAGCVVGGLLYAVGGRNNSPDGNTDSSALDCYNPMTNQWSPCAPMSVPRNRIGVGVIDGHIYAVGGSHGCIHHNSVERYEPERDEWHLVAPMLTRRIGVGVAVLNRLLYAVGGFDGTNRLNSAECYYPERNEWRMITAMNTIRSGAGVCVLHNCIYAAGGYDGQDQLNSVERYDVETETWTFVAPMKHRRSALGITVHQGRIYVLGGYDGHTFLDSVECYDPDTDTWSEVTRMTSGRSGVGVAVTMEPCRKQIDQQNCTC
In the case of E39G, the “effect of a mutation on the interaction” value is reported as “decreasing interaction”.
